Earlier results in patent US20070032474A1, “Use of a compound of formula 1 for making a pharmaceutical composition” (priority 2003, published 2007).

Target: PKBbeta (Homo sapiens, UniProt P31751)
Details: background, reference (5); read-out: AC50 (activation of PKBbeta)

PKBbeta, sequence (P31751 146-460 limits assumed, species assumed): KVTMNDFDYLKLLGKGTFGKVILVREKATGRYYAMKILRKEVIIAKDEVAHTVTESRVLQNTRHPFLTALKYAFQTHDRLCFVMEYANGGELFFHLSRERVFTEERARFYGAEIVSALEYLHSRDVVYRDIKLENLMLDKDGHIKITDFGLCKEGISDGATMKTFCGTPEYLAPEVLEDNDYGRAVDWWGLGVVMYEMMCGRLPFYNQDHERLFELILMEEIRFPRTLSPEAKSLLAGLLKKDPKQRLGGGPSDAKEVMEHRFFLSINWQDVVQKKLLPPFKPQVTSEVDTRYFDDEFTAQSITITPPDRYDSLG

In the case of “polypeptide NH2-REPRILSEEEQEMFRDFDYIADW-COOH comprising a hydrophobic motif; activates AGC kinases (H-REPRILSEEEQEMFRDFDYIADW-OH) [PIFtide]”, the AC50 is given as 5 µM.
